# Assay results: the Human Domainome abundance scans (Beltran et al. 2025)
# ± gives the uncertainty stated by the source.
# B1: Advillin, residues 785 to 819; numbered along this chain, O75366 (parent)
# chain: LSEQDFVSVFGITRGQFAALPGWKQLQMKKEKGLF
# Variants of: B1
# Assay: abundance fitness (aPCA) (normalised: wild type 0, dead -1); higher = more abundant; growth selection in yeast, the domain comes from the species named
# Conditions: Homo sapiens
row,Variant,abundance fitness
1,LSEQDFVSVFGITRGQFAALPGWKQLQMKKEAGLF,0.017 ± 0.066
2,LSEQDFVSVFGITRGQFAALPGWKQLQMKKELGLF,-0.047 ± 0.087
3,LSEQDFVSVFGITRGQFAALPGWKQLQMKKESGLF,0.015 ± 0.08
4,LSEQDFVSVFGITRGQFAALPGWKQLQMKKEMGLF,0.072 ± 0.1
5,LSEQDFVSVFGITRGQFAALPGWKQLQMKKEVGLF,-0.103 ± 0.073
6,LSEQDFVSVFGITRGQFAALPGWKQLQMKKEIGLF,-0.536 ± 0.32
7,LSEQDFVSVFGITRGQFAALPGWKQLQMKKEPGLF,-0.132 ± 0.14
8,LSEQDFVSVFGITRGQFAALPGWKQLQMKKEYGLF,-0.298 ± 0.098
9,LSEQDFVSVFGITRGQFAALPGWKQLQMKKERGLF,0.06 ± 0.052
10,LSEQDFVSVFGITRGQFAALPGWKQLQMKKEFGLF,-0.48 ± 0.47
11,LSEQDFVSVFGITRGQFAALPGWKQLQMKKENGLF,0.122 ± 0.13
12,LSEQDFVSVFGITRGQFAALPGWKQLQMKKEDGLF,-0.624 ± 0.14
13,LSEQDFVSVFGITRGQFAALPGWKQLQMKKEEGLF,-0.175 ± 0.081
14,LSEQDFVSVFGITRGQFAALPGWKQLQMKKEQGLF,-0.122 ± 0.072
15,LSEQDFVSVFGITRGQFAALPGWKQLQMKKEGGLF,-0.156 ± 0.07
16,LSEQDFVSVFGITRGQFAALPGWKQLQMKKETGLF,-0.179 ± 0.076
17,LSEQDFVSVFGITRGQFAALPGWKQLQMKKEWGLF,-0.365 ± 0.092
18,LSEQDFVSVFGITRGQFAALPGWKQLQMKTEKGLF,-0.215 ± 0.096
19,LSEQDFVSVFGITRGQFAALPGWKQLQMKEEKGLF,0.147 ± 0.082
20,LSEQDFVSVFGITRGQFAALPGWKQLQMKQEKGLF,0.026 ± 0.078
21,LSEQDFVSVFGITRGQFAALPGWKQLQMKGEKGLF,-0.159 ± 0.055
22,LSEQDFVSVFGITRGQFAALPGWKQLQMKFEKGLF,-0.345 ± 0.12
23,LSEQDFVSVFGITRGQFAALPGWKQLQMKREKGLF,0.033 ± 0.058

row,Variant,abundance fitness
1,LSEQDFVSVFGITRGQFAALPGWKQLQMKPEKGLF,-0.453 ± 0.069
2,LSEQDFVSVFGITRGQFAALPGWKQLQMKSEKGLF,-0.114 ± 0.063
3,LSEQDFVSVFGITRGQFAALPGWKQLQMKIEKGLF,-0.266 ± 0.17
4,LSEQDFVSVFGITRGQFAALPGWKQLQMKLEKGLF,-0.192 ± 0.058
5,LSEQDFVSVFGITRGQFAALPGWKQLQMKVEKGLF,-0.076 ± 0.063
6,LSEQDFVSVFGITRGQFAALPGWKQLQMKHEKGLF,-0.121 ± 0.097
7,LSEQDFVSVFGITRGQFAALPGWKQLQMKNEKGLF,0.04 ± 0.33
8,LSEQDFVSVFGITRGQFAALPGWKQLQMKMEKGLF,0.051 ± 0.089
9,LSEQDFVSVFGITRGQFAALPGWKQLQMKAEKGLF,0.078 ± 0.055
10,LSEQDFVSVFGITRGQFAALPGWKQLQMKCEKGLF,-0.321 ± 0.077
11,LSEQDFVSVFGITRGQFAALPGWKQLQVKKEKGLF,-1.03 ± 0.18
12,LSEQDFVSVFGITRGQFAALPGWKQLQTKKEKGLF,-1.03 ± 0.15
13,LSEQDFVSVFGITRGQFAALPGWKQLQSKKEKGLF,-1.14 ± 0.19
14,LSEQDFVSVFGITRGQFAALPGWKQLQMKKEKGPF,0.033 ± 0.083
15,LSEQDFVSVFGITRGQFAALPGWKQLQMKKEKGWF,0.019 ± 0.063
16,LSEQDFVSVFGITRGQFAALPGWKQLQMKKEKGTF,0.143 ± 0.064
17,LSEQDFVSVFGITRGQFAALPGWKQLQMKKEKGFF,0.321 ± 0.12
18,LSEQDFVSVFGITRGQFAALPGWKQLQMKKEKGSF,0.177 ± 0.069
19,LSEQDFVSVFGITRGQFAALPGWKQLQMKKEKGEF,0.266 ± 0.08
20,LSEQDFVSVFGITRGQFAALPGWKQLQMKKEKGAF,0.128 ± 0.061
21,LSEQDFVSVFGITRGQFAALPGWKQLQMKKEKGMF,0.029 ± 0.084
22,LSEQDFVSVFGITRGQFAALPGWKQLQMKKEKGCF,0.355 ± 0.11
23,LSEQDFVSVFGITRGQFAALPGWKQLQMKKEKGKF,-0.003 ± 0.064

row,Variant,abundance fitness
1,LSEQDFVSVFGITRGQFAALPGWKQLQMKKEKGDF,0.284 ± 0.14
2,LSEQDFVSVFGITRGQFAALPGWKQLQMKKEKGQF,0.098 ± 0.078
3,LSEQDFVSVFGITRGQFAALPGWKQLQMKKEKGRF,-0.112 ± 0.058
4,LSEQDFVSVFGITRGQFAALPGWKQLQMKKEKGVF,-0.122 ± 0.069
5,LSEQDFVSVFGITRGQFAALPGWKQLQMKKEKGHF,0.042 ± 0.1
6,LSEQDFVSVFGITRGQFAALPGWKQLQMKKEKGNF,0.027 ± 0.088
7,LSEQDFVSVFGITRGQFAALPGWKQLQMKKEKGGF,0.147 ± 0.06
8,LSEQDFVSVFGITRGQFAALPGWKQLQMKKCKGLF,-0.443 ± 0.088
9,LSEQDFVSVFGITRGQFAALPGWKQLQMKKPKGLF,-0.645 ± 0.096
10,LSEQDFVSVFGITRGQFAALPGWKQLQMKKWKGLF,-0.709 ± 0.14
11,LSEQDFVSVFGITRGQFAALPGWKQLQMKKMKGLF,-0.453 ± 0.088
12,LSEQDFVSVFGITRGQFAALPGWKQLQMKKDKGLF,0.02 ± 0.1
13,LSEQDFVSVFGITRGQFAALPGWKQLQMKKKKGLF,-0.271 ± 0.21
14,LSEQDFVSVFGITRGQFAALPGWKQLQMKKAKGLF,-0.173 ± 0.059
15,LSEQDFVSVFGITRGQFAALPGWKQLQMKKLKGLF,-0.42 ± 0.064
16,LSEQDFVSVFGITRGQFAALPGWKQLQMKKIKGLF,-0.421 ± 0.21
17,LSEQDFVSVFGITRGQFAALPGWKQLQMKKRKGLF,-0.464 ± 0.067
18,LSEQDFVSVFGITRGQFAALPGWKQLQMKKHKGLF,-0.563 ± 0.5
19,LSEQDFVSVFGITRGQFAALPGWKQLQMKKTKGLF,-0.645 ± 0.13
20,LSEQDFVSVFGITRGQFAALPGWKQLQMKKVKGLF,-0.367 ± 0.12
21,LSEQDFVSVFGITRGQFAALPGWKQLQMKKYKGLF,-0.746 ± 0.22
22,LSEQDFVSVFGITRGQFAALPGWKQLQMKKGKGLF,-0.283 ± 0.055
23,LSEQDFVSVFGITRGQFAALPGWKQLQMKKEKLLF,-0.305 ± 0.083

row,Variant,abundance fitness
1,LSEQDFVSVFGITRGQFAALPGWKQLQMKKEKRLF,-0.235 ± 0.071
2,LSEQDFVSVFGITRGQFAALPGWKQLQMKKEKKLF,-0.325 ± 0.091
3,LSEQDFVSVFGITRGQFAALPGWKQLQMKKEKTLF,-0.308 ± 0.098
4,LSEQDFVSVFGITRGQFAALPGWKQLQMKKEKQLF,0.186 ± 0.24
5,LSEQDFVSVFGITRGQFAALPGWKQLQMKKEKPLF,0.191 ± 0.14
6,LSEQDFVSVFGITRGQFAALPGWKQLQMKKEKWLF,-0.541 ± 0.08
7,LSEQDFVSVFGITRGQFAALPGWKQLQMKKEKNLF,-0.401 ± 0.1
8,LSEQDFVSVFGITRGQFAALPGWKQLQMKKEKALF,-0.195 ± 0.059
9,LSEQDFVSVFGITRGQFAALPGWKQLQMKKEKSLF,-0.108 ± 0.074
10,LSEQDFVSVFGITRGQFAALPGWKQLQMKKEKELF,-0.032 ± 0.078
11,LSEQDFVSVFGITRGQFAALPGWKQLQMKKEKVLF,-0.525 ± 0.11
12,LSEQDFVSVFGITRGQFAALPGWKQLQMKKEKGLW,-0.13 ± 0.17
13,LSEQDFVSVFGITRGQFAALPGWKQLQMKKEKGLS,0.355 ± 0.18
14,LSEQDFVSVFGITRGQFAALPGWKQLQMKKEKGLP,0.054 ± 0.084
15,LSEQDFVSVFGITRGQFAALPGWKQLQMKKEKGLC,0.179 ± 0.086
16,LSEQDFVSVFGITRGQFAALPGWKQLQMKKEKGLQ,-0.071 ± 0.3
17,LSEQDFVSVFGITRGQFAALPGWKQLQMKKEKGLK,-1 ± 0.38
18,LSEQDFVSVFGITRGQFAALPGWKQLQMKKEKGLV,0.141 ± 0.097
19,LSEQDFVSVFGITRGQFAALPGWKQLQMKKEKGLR,0.126 ± 0.11
20,LSEQDFVSVFGITRGQFAALPGWKQLQMKKEKGLI,0.312 ± 0.2
21,LSEQDFVSVFGITRGQFAALPGWKQLQMKKEKGLE,0.129 ± 0.094
22,LSEQDFVSVFGITRGQFAALPGWKQLQMKKEKGLL,0.197 ± 0.14
23,LSEQDFVSVFGITRGQFAALPGWKQLQMKKEKGLN,-0.478 ± 0.43

row,Variant,abundance fitness
1,LSEQDFVSVFGITRGQFAALPGWKQLQMKKEKGLA,-0.334 ± 0.29
2,LSEQDFVSVFGITRGQFAALPGWKQLQMHKEKGLF,-0.099 ± 0.11
3,LSEQDFVSVFGITRGQFAALPGWKQLQMWKEKGLF,-0.075 ± 0.07
4,LSEQDFVSVFGITRGQFAALPGWKQLQMTKEKGLF,-0.043 ± 0.06
5,LSEQDFVSVFGITRGQFAALPGWKQLQMQKEKGLF,0.026 ± 0.07
6,LSEQDFVSVFGITRGQFAALPGWKQLQMCKEKGLF,-0.024 ± 0.06
7,LSEQDFVSVFGITRGQFAALPGWKQLQMFKEKGLF,-0.005 ± 0.26
8,LSEQDFVSVFGITRGQFAALPGWKQLQMLKEKGLF,-0.289 ± 0.071
9,LSEQDFVSVFGITRGQFAALPGWKQLQMAKEKGLF,-0.183 ± 0.061
10,LSEQDFVSVFGITRGQFAALPGWKQLQMVKEKGLF,0 ± 0.077
11,LSEQDFVSVFGITRGQFAALPGWKQLQMIKEKGLF,-0.218 ± 0.12
12,LSEQDFVSVFGITRGQFAALPGWKQLQMMKEKGLF,-0.187 ± 0.16
13,LSEQDFVSVFGITRGQFAALPGWKQLQMPKEKGLF,-0.497 ± 0.11
14,LSEQDFVSVFGITRGQFAALPGWKQLQMSKEKGLF,-0.017 ± 0.068
15,LSEQDFVSVFGITRGQFAALPGWKQLQMGKEKGLF,-0.266 ± 0.065
16,LSEQDFVSVFGITRGQFAALPGWKQLQMYKEKGLF,-0.221 ± 0.21
17,LSEQDFVSVFGITRGQFAALPGWKQLQMRKEKGLF,-0.023 ± 0.048
18,LSEQDFVSVFGITRGQFAALPGWKQLQMDKEKGLF,-0.356 ± 0.18
19,LSEQDFVSVFGITRGQFAALPGWKQLQMNKEKGLF,-0.09 ± 0.081
